The text below walks through data of the RNAGym collection of RNA variant scans (doi:10.1073/pnas.2313332121).

Sequences and labels used below:
B1: TPR 5TU (parent)
chain: GGAUCUUCUCGAUCUAACAAAAAAGACAAAUCUGCCACAAAGCUUGAGAGCAUCUUCGGAUGCAGAGGCGGCAGCCUUCGGUGGCGCGAUAGCGCCAACGUUCUCAACUAUGACACGCAAAACGCGUGCUCCGUUGAAUGGAGUUUAUCAUG

Variants at the floor of the assay were thinned out. Some results are limits rather than exact numbers.

Variants of B1 are the subject of the data set. Put plainly: polymerase ribozyme fitness, log enrichment relative to wild type (log ratio); higher = more active; in vitro selection for triplet polymerase activity. In a few lines: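 One round of in vitro selection, in triplicate, was applied to PCR-built, transcribed mutant libraries of each subunit of a heterodimeric triplet polymerase ribozyme. The steps were annealing with a biotinylated primer, partner subunit and triplets, incubation frozen at −7 °C, gel excision of extended constructs, streptavidin-bead capture and RT-PCR. Fitness is the logarithm, base 2, of genotype enrichment over wild-type enrichment from inverse-variance-weighted replicate averages of Illumina-sequenced inputs and outputs, keeping genotypes with ≥10 input reads and ≥1 read per output.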
On to GGAUAUUCUCGAUCUAACAAAAAAGACAAAUCUGCCACAAAGCUUGAGAGCAUCUUCGGAUGCAGACGCGGCAGCCUUCGGUGGCGCGAUAGCGCCAACGUUAUCAACUAUGACACGCAAAACGCGUGCUCCGUUGAAUGUAGUUUAUCCUG [C5A G67C C103A G141U A150C], for which the “polymerase ribozyme fitness (log ratio)” value is not above -4.2. On to GGAUAAUCUCGAUCUAACAAAAAAGACAAAUCUGCCACAAAGCUUGAGAGCAUCUUCGGAUGCAGAGGCGGCAGCCUUCGGUGGCGCGAUAGCUCCAACGUUCUCAACUAUGACACGCAAAAUGCGUGCUCCGUUGAAUGGAGUUUAGCAUG [C5A U6A G94U C123U U148G], for which the “polymerase ribozyme fitness (log ratio)” value is not above -4.2.

Regarding GGAUAUUCUCGAUCUAACAAAAAAGACAAAUCUGCCACAAAGCUCGAGAGCAUCUUCUGAUGCAGAGGCGGCAGCCUUCGGCGACGCGAUAGCGCCAACGUUCUCAACUAUGACACGCAAAACGCGUGCUCCGUUGAAUGGAGUUUAUCAUG [C5A U45C G58U U82C G84A], the “polymerase ribozyme fitness (log ratio)” value was -3.97. In the case of GGAUAUUCUCGAUCUAACAAAAAAGACAAAUCUGCCACAAAGCUCGAGAGCAUCUUCGGAUGCUGAGGCGGCAGACUUCGGUGGCGCGAUAGCGCCAACGUUCUCAACUAUGACACGCAAAACGCGUGCUCCGUUGAAUGCAGUCUAUCUUG [C5A U45C A64U C75A G141C U145C A150U] it was not above -4.2. Then GGAUAUUCUCGAGCUAACAAAAAAGACAAAUCUGCCACAAAGCUUGAGAGCAUCUUCGGAUGCAGAGGCGGCAGCCUUCGUUGGCGCGAUACCGCCAACGUUCUCAACUAUGACACGCAAAACGCGUGCUCCGUUGAAUGGAGUGUAUCAUG [C5A U13G G81U G92C U145G], with -2.12; and GGAUAUUCUCGAUCUAACAAAAAAGACAAAUCUGCCACAAAGCUGGAGAGCAUCUUCGGAUGCAGAGGCGGCAGCCUUCGGUGGGGCGAUAGCGCCAACGUUCUCAACUAUGACACGCAAAACGCGUGCUCCGUUGAAUGGAGUUUAUCAUG [C5A U45G C85G], with -2.33; and GGAUAUUCUCGAUCUAACAAAAAAGACAAAUCUGCCACAAAGCUUGAGAGCAUCUUCGGAAGCAGAGGCGGCAGCCUUCGGUGGCGCGAUAGCGCCAACGUGCUCAACUAUGACACGCAAAACGCGUGCUCCGUUGAAUGGAGUUUAUCAUG [C5A U61A U102G], with not above -4.2. Regarding GGAUAUUCUCGAUCUAACAAAAAAGACAAAUCUGCCACAAAGCUUGAGAGCAUCUACAGAUGCAGAGGCGGUAGCCUUCGGUGGCGUGAUAGCGCCAACGUUCUCAACGAUGACACGCAAAACGCGUGCUCCGUUAAAUGGAGCUUAUCAUG [C5A U56A G58A C72U C87U U109G G136A U144C], the “polymerase ribozyme fitness (log ratio)” value is -3.93. As for GGAUAUUCUCGAUCUAACAAAAAAGACAAAUCUGCCACAAAGCUUGACAGCAUCUUCGGAUGCAGAGGCGGCAGCCUUCGGUGGCGCGAUAGCGCCAACGUUCUCAACUAUGACACGCAAAACGCGUGCUCCGUUGAAUGGAGUUUAUCAUG [C5A G48C], the “polymerase ribozyme fitness (log ratio)” value is -0.334. In the case of GGAUAUUCUCGAUCUAACAAAAAAGACAAAUCUGCCACAAAGCUUGAGAGCAUCUUCGGAUGCAGAGGCGGCAGCCAUCGGUGGCGAGAUAGCGCCAACGUUCUCAACUAUGACACGCAAAACGCGUGCUCCGUUGAAUGGAGUUUAUCAUG [C5A U77A C87A], the “polymerase ribozyme fitness (log ratio)” value was not above -4.2.

Regarding GGAUAUCCUCGAUCUAACAAAUAAGACAAAUCUGCCACAAAGCUUGAGAGCAUCUUCGGAUGCAGAGGCGGCAGCCUUCGGUGGCGCGAUAGCGCCAACGUUGUCAACUAUGACACGCAAAACGCGUGCUCCGUUGAAUGGAGUUUAUCAUG [C5A U7C A22U C103G], the “polymerase ribozyme fitness (log ratio)” value was -2.38.

In the case of GGAUAUUCACGAUCUAACAAAAAAGACAAAUCUGCCACAAGGCUUGAGAGCAUCUUCGGAUGCAGAGGCGGCAGCGUUCGGUGGCGCGAUUGCGCCAACGUUCUCAACUAUGACACGCAAAACGCAUGCUCCGUUAAAUGGAGUUUAUCAUG [C5A U9A A41G C76G A91U G126A G136A], the “polymerase ribozyme fitness (log ratio)” value was not above -4.2. With GGAUGUUCUCGCUCUAACAAAAAAGACAAAUCUGCCACAUAGCUUGAGAGCAUCUUCCGAUGCAGAGGCGGCAGCCUUCGGUUGCGCGAUAGCGCCAACGUUCUCAACUAUGACACGGAAAACGCGUGCUCCGUUGAAUGGAGUUUAUCAUG [C5G A12C A40U G58C G83U C118G], the “polymerase ribozyme fitness (log ratio)” value is -3.96. For the variant GGAUAUUCUCGAUCUAACAAAAAAGACAAAUCUGCCACAAAGCUUGAGAGCAUCUUCGGAUGCAGAGGCGGCAGCCUUCGAUGGCGCGAUAGCGCCAACGUUCUCAACUAUGACACGCAAAACGCGUGCUCCGUUGAAUGGAGUUUAUCAUG [C5A G81A], the “polymerase ribozyme fitness (log ratio)” value is 0.566. In the case of GGAUAUUCUCGAUCUAACAAAAAAGACAAAUCUGCCACAAAGCUUGAGAGCAUCUUCGGAUCCAGACGCGGCAGCCUUCGGUGGCGCGAUAGCACCAACGUUCUCUACUAUGACACGCAAAACGCGUGCUCCGUUGAAUGGAGUUUAUCAUG [C5A G62C G67C G94A A106U] it was not above -4.2; in that of GGAUAUUCGCGAUCUAACAAAAAAGACAAAUCUGCCACAAAGCUUGAGAGCAUCUUCGGAUGCAGAGGCGGCGGCCUUCGGUGGCGUGAUAGCGCCAACGUUCUCAACUAUGACACGCAUAAUGCGUGCUCCGUUGAAUGGAGUUUGUCAUG [C5A U9G A73G C87U A120U C123U A147G], -3.95; in that of GGAUAUGCUCGAUCUAACAAAAAAGACAAAUCUGCCACAAAGCUUGAGAGCAUCUUCGGAUGCAGAGGCGGCAGCCUUCGGUGGCGCUAUAGCGCCAACGUUCUGAACUAUGACACGCAAAACGCGUGCUCCGUUAUAUGGAGUUUAUCAUU [C5A U7G G88U C105G G136A A137U G152U], not above -4.2. For GGAUAUUCUCGAGCUAACAAAAAAGAAAAAUCUACCACAAACCUUGAGAGCAUCUUCGGAUGCAGAGGCGGCAGCCUUCGGUGGCGCGAUAGCGCAAACGUUCUCAACUAUGACACGCAAAACGCGUGCUCCGUUGAAUGGAGUUUAUCAUG [C5A U13G C27A G34A G42C C96A], the “polymerase ribozyme fitness (log ratio)” value was not above -4.2. In the case of GGAUAUUCUCGAUCUAACAAAAAAGACAAAUCUGCCACAAAGCUUGAGAGCAUCUUCGGAUGCAGAGGCGGCAGCCUUCGGUGGCGCGAUAGCGCCAACGUUCUCAACUAUGACACGCAAAACGCGUGCUCCGUUAAAUGGAGUUUAUCAUG [C5A G136A] it was 0.816.
